B1: Liver X Receptor α (receptor)
chain: MSLWLGAPVPDIPPDSAVELWKPGAQDASSQAQGGSSCILREEARMPHSAGGTAGVGLEAAEPTALLTRAEPPSEPTEIRPQKRKKGPAPKMLGNELCSVCGDKASGFHYNVLSCEGCKGFFRRSVIKGAHYICHSGGHCPMDTYMRRKCQECRLRKCRQAGMREECVLSEEQIRLKKLKRQEEEQAHATSLPPRASSPPQILPQLSPEQLGMIEKLVAAQQQCNRRSFSDRLRVTPWPMAPDPHSREARQQRFAHFTELAIVSVQEIVDFAKQLPGFLQLSREDQIALLKTSAIEVMLLETSRRYNPGSESITFLKDFSYNREDFAKAGLQVEFINPIFEFSRAMNELQLNDAEFALLIAISIFSADRPNVQDQLQVERLQHTYVEALHAYVSIHHPHDRLMFPRMLMKLVSLRTLSSVHSEQVFALRLQDKKLPPLLSEIWDVHE
modifications: 35S-radiolabeled
B2: Peroxisome Proliferator Activated Receptor α (receptor)
chain: MVDTESPLCPLSPLEAGDLESPLSEEFLQEMGNIQEISQSIGEDSSGSFGFTEYQYLGSCPGSDGSVITDTLSPASSPSSVTYPVVPGSVDESPSGALNIECRICGDKASGYHYGVHACEGCKGFFRRTIRLKLVYDKCDRSCKIQKKNRNKCQYCRFHKCLSVGMSHNAIRFGRMPRSEKAKLKAEILTCEHDIEDSETADLKSLAKRIYEAYLKNFNMNKVKARVILSGKASNNPPFVIHDMETLCMAEKTLVAKLVANGIQNKEAEVRIFHCCQCTSVETVTELTEFAKAIPGFANLDLNDQVTLLKYGVYEAIFAMLSSVMNKDGMLVAYGNGFITREFLKSLRKPFCDIMEPKFDFAMKFNALELDDSDISLFVAAIICCGDRPGLLNVGHIEKMQEGIVHVLRLHLQSNHPDDIFLFPKLLQKMADLRQLVTEHAQLVQIIKKTESDAALHPLLQEIYRDMY
modifications: 35S-radiolabeled
B3: Farnesoid X Receptor (receptor)
chain: MVMQFQGLENPIQISPHCSCTPSGFFMEMMSMKPAKGVLTEQVAGPLGQNLEVEPYSQYSNVQFPQVQPQISSSSYYSNLGFYPQQPEEWYSPGIYELRRMPAETLYQGETEVAEMPVTKKPRMGASAGRIKGDELCVVCGDRASGYHYNALTCEGCKGFFRRSITKNAVYKCKNGGNCVMDMYMRRKCQECRLRKCKEMGMLAECMYTGLLTEIQCKSKRLRKNVKQHADQTVNEDSEGRDLRQVTSTTKSCREKTELTPDQQTLLHFIMDSYNKQRMPQEITNKILKEEFSAEENFLILTEMATNHVQVLVEFTKKLPGFQTLDHEDQIALLKGSAVEAMFLRSAEIFNKKLPSGHSDLLEERIRNSGISDEYITPMFSFYKSIGELKMTQEEYALLTAIVILSPDRQYIKDREAVEKLQEPLLDVLQKLCKIHQPENPQHFACLLGRLTELRTFNHHHAEMLMSWRVNDHKFTPLLCEIWDVQ
modifications: 35S-radiolabeled

For this experiment, the target named is GST fusion with the receptor interaction domains (RID) of NCoRδ (region equivalent to amino acids 1817–2453 of NCoRω). Briefly: pull-down; GST fusion protein (~50 ng) immobilised on ~10 μl glutathione-agarose; 35S-radiolabeled in vitro translated nuclear receptor (2–5 μl TnT product) in 120 μl HEMG buffer (4 mM HEPES pH 7.8, 0.2 mM EDTA, 5 mM MgCl2, 10% glycerol, 100 mM KCl, 0.1% Nonidet P-40, 1.5 mM DTT) with 10 mg/ml BSA; 3 hr at 4°C; eluted with 10 mM glutathione, SDS-PAGE, PhosphorImager.
On to “Thyroid Hormone Receptor α (from UniProt P10827-2 1-410)”, for which the relative binding to NCoRδ versus NCoRω (ratio (NCoRδ versus NCoRω)) was 0.42.
Next, “Peroxisome Proliferator Activated Receptor γ (from UniProt P37231 1-505)”: 0.88; B1: 0.51; B2: 0.79.
Next, B3: 0.35.

Values taken from PMC7588069.
